One test addresses IGF-I (UniProt P05019). Nature of the test: competition binding with 125I-IGF-I tracer and unlabelled IGF-I as competitor, Scatchard analysis.
For a further test, the target named is IGF-II (UniProt P01344). Description: competition binding with 125I-IGF-I tracer and unlabelled IGF-II as competitor, Scatchard analysis.
Chain of IGF-II (P01344 25-91 limits assumed): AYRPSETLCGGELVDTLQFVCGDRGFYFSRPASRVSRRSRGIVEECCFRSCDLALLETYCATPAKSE

Chain of IGF-I (P05019 49-118 limits assumed): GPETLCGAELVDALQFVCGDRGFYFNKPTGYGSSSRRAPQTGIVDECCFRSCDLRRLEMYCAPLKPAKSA

In the case of “mini-IGFBP-3 (mutated recombinant IGFBP-3; H6-mini-IGFBP-3) (from UniProt P17936 28-121; P17936 207-291)”, the Ka in the test with IGF-I was determined as 2.4e+10 M⁻¹; in the test with IGF-II, 3.14e+10 M⁻¹.

The values are drawn from patent US20140005098A1.
